These results are taken from paper PMC5494190, “Structure of the Rpn13-Rpn2 complex provides insights for Rpn13 and Uch37 as anticancer targets” (Nature Communications, 2017).

The Kd is a measure of binding affinity in units of concentration. A lower Kd goes with tighter binding.

One assay addresses T1, full-length hRpn13 (human, UniProt Q16186 1-407).
T1 construct: hRpn13/Adrm1, human, full-length protein (Pru and DEUBAD domains); The preparation of the full-length protein is not described; it was not held on Talon resin by itself in the pull-down, so it probably carried no His tag; also called hRpn13 full-length protein; Adrm1; source: purified recombinant protein
The assay can be described thus: fluorescence polarisation; 10 nM FITC-hRpn2 (940–953) with serially diluted full-length hRpn13; 20 mM sodium phosphate, 50 mM NaCl, pH 6.5; room temperature, 30 min; Hill slope model; also with 100 μM RA190 or 2% DMSO. As to conditions: both partners purified.

Assay [1] has as its target T2, hRpn13 (1–150), which includes the Pru domain (human, UniProt Q16186 1-150).
T2 construct: hRpn13/Adrm1, human, residues M1-L150 (Pru domain; N-terminal 19 and C-terminal 20 residues randomly coiled); Isotope-labelled (15N, 13C) in some NMR samples; also called hRpn13 Pru; hRpn13 Pru (1–150); not shown: His tag, N-terminal, cleaved
The assay can be described thus: ITC; 25 °C; 200 μM hRpn2 peptide injected into 20 μM or 18 μM hRpn13 Pru in the cell; 20 mM sodium phosphate, 50 mM NaCl, 10 mM βME, pH 7.0; one-site fit. As to conditions: both partners purified. (In general: In ITC the heat of successive injections is recorded.)

No end group written: not given here. *: point of attachment. FITC‑N3 = fluorescein azide; Pent4ynoyl = C#CCCC(=O)*; AEEA = NCCOCCOCC(=O)O

T2 sequence (Q16186 1-150): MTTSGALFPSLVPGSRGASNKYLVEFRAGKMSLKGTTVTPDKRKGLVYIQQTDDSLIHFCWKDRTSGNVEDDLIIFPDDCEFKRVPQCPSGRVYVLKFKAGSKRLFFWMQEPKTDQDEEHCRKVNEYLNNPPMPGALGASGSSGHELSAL
T1 sequence (Q16186 whole entry, the tested form may be a part): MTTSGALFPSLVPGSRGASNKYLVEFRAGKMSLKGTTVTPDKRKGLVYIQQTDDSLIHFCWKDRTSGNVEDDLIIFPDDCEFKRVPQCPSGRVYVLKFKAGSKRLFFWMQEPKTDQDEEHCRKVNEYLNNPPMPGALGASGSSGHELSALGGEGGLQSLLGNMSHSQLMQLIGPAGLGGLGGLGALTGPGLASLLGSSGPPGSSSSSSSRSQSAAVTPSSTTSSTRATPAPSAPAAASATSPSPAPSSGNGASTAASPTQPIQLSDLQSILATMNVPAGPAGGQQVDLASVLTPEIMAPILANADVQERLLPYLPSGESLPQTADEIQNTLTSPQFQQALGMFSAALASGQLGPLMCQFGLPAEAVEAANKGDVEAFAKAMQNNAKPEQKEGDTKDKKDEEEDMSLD

B1: FITC-hRpn2 (940–953) (peptide)
peptide: {FITC‑N3-Pent4ynoyl-AEEA}-QEPEPPEPFEYIDD
notes: also called FITC-labelled hRpn2 probe; source: synthetic peptide (Fmoc solid-phase synthesis, click coupling to FITC-N3, HPLC purified)
The molecule B1 returned a Kd with full-length hRpn13 of 14.7 nM.

B2: hRpn2 (944–953) (peptide)
peptide: PPEPFEYIDD
notes: source: synthetic peptide (Fmoc chemistry on Wang resin, HPLC purified)
In the case of B2, the dissociation constant (Kd) in assay [1] was found to be 1960 ± 220 nM.

B3: hRpn2 (940–953) (peptide)
chain: QEPEPPEPFEYIDD
notes: The author contributions say that peptides were synthesized for the DSF experiment, so the DSF sample may be a synthetic peptide of the same limits; also called hRpn2 peptide; hRpn2 fragment; source: E. coli BL21(DE3) pLysS, purified (Glutathione S-sepharose 4B, PreScission cleavage, Superdex75); not shown: GST, N-terminal, cleaved
Take B3: in assay [1], the affinity, expressed as Kd, was 27 ± 10 nM.
